doi:10.1101/758698

Experiments:
Assay in all cases: fluorescence polarization
hBrr2T1 = hBrr2T1 (human, UniProt O75643 395-2129)
hBrr2T1-SS-linear = hBrr2T1-SS-linear (human, UniProt O75643 395-2129, M641C;A1582C)
hBrr2T1-SS-rot+ = hBrr2T1-SS-rot+ (human, UniProt O75643 395-2129, D534C;N1866C)

Measured: binding result

Sequence of hBrr2T1 (O75643 395-2129): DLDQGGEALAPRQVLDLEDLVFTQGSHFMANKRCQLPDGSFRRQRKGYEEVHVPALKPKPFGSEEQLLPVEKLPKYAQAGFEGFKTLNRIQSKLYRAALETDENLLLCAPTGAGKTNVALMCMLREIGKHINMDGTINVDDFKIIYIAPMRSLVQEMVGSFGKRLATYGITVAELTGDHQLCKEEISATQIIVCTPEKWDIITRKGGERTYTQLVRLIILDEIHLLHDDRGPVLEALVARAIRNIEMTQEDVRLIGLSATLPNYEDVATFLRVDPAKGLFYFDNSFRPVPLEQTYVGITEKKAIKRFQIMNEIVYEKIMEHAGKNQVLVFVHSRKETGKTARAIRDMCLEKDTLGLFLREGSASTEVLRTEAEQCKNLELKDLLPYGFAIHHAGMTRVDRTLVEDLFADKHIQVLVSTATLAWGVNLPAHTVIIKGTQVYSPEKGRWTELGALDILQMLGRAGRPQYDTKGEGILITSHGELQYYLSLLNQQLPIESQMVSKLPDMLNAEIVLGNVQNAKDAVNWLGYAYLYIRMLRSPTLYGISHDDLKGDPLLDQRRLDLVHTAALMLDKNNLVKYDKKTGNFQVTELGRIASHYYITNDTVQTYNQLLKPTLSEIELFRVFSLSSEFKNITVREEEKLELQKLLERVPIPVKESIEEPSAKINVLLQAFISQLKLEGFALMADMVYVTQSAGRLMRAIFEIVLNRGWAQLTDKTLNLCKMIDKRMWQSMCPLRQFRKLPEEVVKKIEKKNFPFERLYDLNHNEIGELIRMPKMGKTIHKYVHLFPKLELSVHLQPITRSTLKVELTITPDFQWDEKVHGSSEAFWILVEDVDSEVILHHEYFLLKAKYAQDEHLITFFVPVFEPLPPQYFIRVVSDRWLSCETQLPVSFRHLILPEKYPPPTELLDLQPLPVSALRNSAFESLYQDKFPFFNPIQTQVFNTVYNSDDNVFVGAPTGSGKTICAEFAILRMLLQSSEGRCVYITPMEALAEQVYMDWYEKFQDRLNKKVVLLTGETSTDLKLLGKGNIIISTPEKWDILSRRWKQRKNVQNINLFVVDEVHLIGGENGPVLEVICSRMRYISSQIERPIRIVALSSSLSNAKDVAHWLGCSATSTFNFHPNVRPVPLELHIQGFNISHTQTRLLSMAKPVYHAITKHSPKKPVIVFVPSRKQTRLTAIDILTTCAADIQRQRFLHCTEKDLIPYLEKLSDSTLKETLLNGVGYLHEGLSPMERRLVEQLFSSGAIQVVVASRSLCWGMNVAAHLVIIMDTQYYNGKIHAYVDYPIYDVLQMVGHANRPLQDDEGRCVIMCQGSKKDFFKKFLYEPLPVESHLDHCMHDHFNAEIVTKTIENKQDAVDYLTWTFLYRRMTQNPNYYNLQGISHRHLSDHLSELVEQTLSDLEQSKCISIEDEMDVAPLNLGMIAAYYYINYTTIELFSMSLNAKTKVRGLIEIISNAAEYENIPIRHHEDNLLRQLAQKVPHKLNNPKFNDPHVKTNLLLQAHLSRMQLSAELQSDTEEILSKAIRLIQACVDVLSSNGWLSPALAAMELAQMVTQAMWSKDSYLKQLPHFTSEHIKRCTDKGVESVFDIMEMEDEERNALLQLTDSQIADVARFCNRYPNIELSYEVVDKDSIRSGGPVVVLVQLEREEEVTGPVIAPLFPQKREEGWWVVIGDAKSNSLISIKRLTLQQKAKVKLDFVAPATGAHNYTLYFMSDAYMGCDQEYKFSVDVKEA
Sequence of hBrr2T1-SS-linear (O75643 395-2129 M641C/A1582C): as the sequence (O75643 395-2129) above, with M247C, A1188C counted along it
Sequence of hBrr2T1-SS-rot+ (O75643 395-2129 D534C/N1866C): as the sequence (O75643 395-2129) above, with D140C, N1472C counted along it

B1: RNA duplex with 3' ss overhang (dsRNA)
RNA 1: CGCGUGCUGGUCGAAAUUUAAUUAUAAACCAGACCGUC
RNA 2: GACCAGCACGCG
binds: all assays above
